# Experiments:
# [1] = target: T1, His-SEB蛋白 (Staphylococcus aureus, UniProt P01552 28-266)
# T1 sequence: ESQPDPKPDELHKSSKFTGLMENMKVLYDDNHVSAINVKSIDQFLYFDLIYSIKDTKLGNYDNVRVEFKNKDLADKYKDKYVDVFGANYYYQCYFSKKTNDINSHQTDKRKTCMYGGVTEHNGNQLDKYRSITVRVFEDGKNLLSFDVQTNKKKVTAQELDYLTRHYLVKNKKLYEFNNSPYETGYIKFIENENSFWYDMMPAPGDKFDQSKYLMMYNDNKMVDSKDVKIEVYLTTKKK
# [2] = target: T1, His-SEB蛋白; remark: listed apart in the source
binder,measurement,setting,value
"YG11-1抗体 (antibody, V domains shown) VH: QVQLVESGGGVVQPGRSLRLSCAASGFSLSDHAVHWVRQAPGKGLEWVALISYDGSDKYYKDSVKGRFTISRDNPKNTLYLQMTSLKPEDTAVYYCARQGGNKNINYFFQYLDVWGQGTMVTVSS VL: DIVMTQTPSSLSASVGDRVNISCRASQTISNHLNWYLQKPGKAPKLLIYDASSLESGVPSRFSGSGSGTDFTLTISSLQPEDFATYYCQQFINYPPTFGPGTKLEIKR",EC50,[1],0.013 µg/mL
same,Kd,[2],16.6 nM
same,koff,[2],0.0169 s⁻¹
same,kon,[2],1.02e+06 M⁻¹ s⁻¹

# Source: patent CN111333724A (INST MILITARY MEDICINE ACADEMY MILITARY SCIENCES PLA, dated 2020)
